Experimental data taken from the supplement of paper PMC10567573.

B1: VTI1B (parent)
chain: NKLLLSIIILLELAILGGLVYYKF

Variants of: B1
Assay: protein stability index of a GFP-peptide fusion (GPS, HEK-293T) (PSI 1-6); higher = more stable
Conditions: c terminus: a fixed tail appended
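Further: lentivirally expressed fusions sorted by FACS into six bins by GFP to DsRed ratio, PSI derived from sequencing read proportions per bin multiplied by bin number.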

Variant	protein stability index
NKLLLSIIILLELAILGGLVYYKP [F24P]	2.79
NKLLLSIIILLELAILGGLVYYKC [F24C]	2.01
NKLLLSIIILLELAILGGLVYYKV [F24V]	2.5
NKLLLSIIILLELAILGGLVYYKS [F24S]	2.46
FKLLLSIIILLELAILGGLVYYKF [N1F]	2.82
YKLLLSIIILLELAILGGLVYYKF [N1Y]	2.36
QKLLLSIIILLELAILGGLVYYKF [N1Q]	2.12
SKLLLSIIILLELAILGGLVYYKF [N1S]	2.63
LKLLLSIIILLELAILGGLVYYKF [N1L]	2.74
WKLLLSIIILLELAILGGLVYYKF [N1W]	3.84
NKLLLSIIILLELAILGSLVYYKF [G18S]	3.16
NKLLLSIIILLELAILGALVYYKF [G18A]	2.61
NKLLLSIIILLELAILGWLVYYKF [G18W]	2.52
NKLLLSIIILLELAILGDLVYYKF [G18D]	2.01
NKLLLSIIILLELAILGPLVYYKF [G18P]	2.88
NKLLLSIIILLELAILGGLCYYKF [V20C]	1.34
NKLLLSIIILLELAILGGLQYYKF [V20Q]	3.31
NKLLLSIIILLELAILGGLDYYKF [V20D]	3.38
NKLLLSIIILLELAINGGLVYYKF [L16N]	2.9
NKLLLSIIILLELAIMGGLVYYKF [L16M]	3.6
NKLLLSIIILLELAIQGGLVYYKF [L16Q]	3.17
NKLLLSIIILLELAIFGGLVYYKF [L16F]	2.62
NKLLLSIIILLELAILGGLVYFKF [Y22F]	2.59
NKLLLSIIILLELAILGGLVYSKF [Y22S]	1.56

Variant	protein stability index
NKLLLSIIILLELAILGGLVYMKF [Y22M]	3.54
NKLLLSIIILLELAILGGLVYQKF [Y22Q]	3.06
NKLLLSIIILLRLAILGGLVYYKF [E12R]	2.18
NKLLLSIIILLPLAILGGLVYYKF [E12P]	2.64
NKLLLSIIILLLLAILGGLVYYKF [E12L]	2.33
NKLLLSIIILLTLAILGGLVYYKF [E12T]	2.87
NKLLLSIIILLNLAILGGLVYYKF [E12N]	1.44
NKLLLSIIILLEPAILGGLVYYKF [L13P]	3.15
NKLLLSIIILLEYAILGGLVYYKF [L13Y]	2.83
NKLLLSIIILLEMAILGGLVYYKF [L13M]	3.13
NKLLLSIIILLECAILGGLVYYKF [L13C]	1.85
NKLLLSIIILLETAILGGLVYYKF [L13T]	3.42
NKLLLSIIILLELGILGGLVYYKF [A14G]	3.17
NKLLLSIIILLELPILGGLVYYKF [A14P]	2.64
NKLLLSIIILLELHILGGLVYYKF [A14H]	3.82
NKLLLSIIINLELAILGGLVYYKF [L10N]	2.09
NKLLLSIIIWLELAILGGLVYYKF [L10W]	3.4
NSLLLSIIILLELAILGGLVYYKF [K2S]	2.46
NFLLLSIIILLELAILGGLVYYKF [K2F]	3.52
NMLLLSIIILLELAILGGLVYYKF [K2M]	2.6
NKLLLSIDILLELAILGGLVYYKF [I8D]	3.18
NKLLLSIGILLELAILGGLVYYKF [I8G]	1.21
NKLLLSIHILLELAILGGLVYYKF [I8H]	4.21
NKLLLSIAILLELAILGGLVYYKF [I8A]	3.36

Variant	protein stability index
NKLLLSISILLELAILGGLVYYKF [I8S]	3.02
NKLLLSIIILLELAFLGGLVYYKF [I15F]	2.06
NKLLLSIIILLELAELGGLVYYKF [I15E]	2.52
NKLLLSIIILLELARLGGLVYYKF [I15R]	2.12
NKLLLSIIILLELAILGGLVYYCF [K23C]	2.27
NKLLLSIIILLELAILGGLVYYDF [K23D]	2.65
NKLLLSIIILLELAILGGLVYYYF [K23Y]	2.52
NKLLLSIIILLELAILGGLVYYHF [K23H]	1.85
NKLLLSIIILLELAILGGLVYYFF [K23F]	2.1
NKLLLSIIILLELAILGGLVYYQF [K23Q]	3.58
NKLLLSIIILLELAILGGLVYYAF [K23A]	2.52
NKRLLSIIILLELAILGGLVYYKF [L3R]	3.98
NKYLLSIIILLELAILGGLVYYKF [L3Y]	3.55
NKILLSIIILLELAILGGLVYYKF [L3I]	2.78
NKALLSIIILLELAILGGLVYYKF [L3A]	2.92
NKQLLSIIILLELAILGGLVYYKF [L3Q]	2.99
NKLLLSVIILLELAILGGLVYYKF [I7V]	2.32
NKLLLSIIILLELAILGGLVSYKF [Y21S]	1.66
NKLLLSIIILLELAILGGLVVYKF [Y21V]	2.17
NKLLLSIIILLELAILGGLVMYKF [Y21M]	2.58
NKLLLSIIILDELAILGGLVYYKF [L11D]	3.12
NKLLLSIIILCELAILGGLVYYKF [L11C]	2.36
NKLLLSIIILPELAILGGLVYYKF [L11P]	2.43
NKLLLSIIILWELAILGGLVYYKF [L11W]	3.2

Variant	protein stability index
NKLLQSIIILLELAILGGLVYYKF [L5Q]	4.28
NKLLASIIILLELAILGGLVYYKF [L5A]	2.22
NKLLYSIIILLELAILGGLVYYKF [L5Y]	3.05
NKLLISIIILLELAILGGLVYYKF [L5I]	3.01
NKLLPSIIILLELAILGGLVYYKF [L5P]	2.39
NKLLLAIIILLELAILGGLVYYKF [S6A]	3.54
NKLLLLIIILLELAILGGLVYYKF [S6L]	2.02
NKLLLFIIILLELAILGGLVYYKF [S6F]	2.67
NKLLLRIIILLELAILGGLVYYKF [S6R]	3.55
NKLVLSIIILLELAILGGLVYYKF [L4V]	2.82
NKLLLSIIILLELAILVGLVYYKF [G17V]	2.85
NKLLLSIIILLELAILPGLVYYKF [G17P]	2.58
NKLLLSIIILLELAILRGLVYYKF [G17R]	2.35
NKLLLSIIILLELAILHGLVYYKF [G17H]	2.42
NKLLLSIIILLELAILCGLVYYKF [G17C]	3.4
NKLLLSIIILLELAILGGWVYYKF [L19W]	2.91
NKLLLSIIILLELAILGGFVYYKF [L19F]	2.77
NKLLLSIIILLELAILGGSVYYKF [L19S]	3.48
NKLLLSIIILLELAILGGTVYYKF [L19T]	1.82
NKLLLSIIILLELAILGGPVYYKF [L19P]	3.45
NKLLLSIIFLLELAILGGLVYYKF [I9F]	2.03
NKLLLSIIDLLELAILGGLVYYKF [I9D]	3.1
